Results on 3 molecules are retold here after PMC10604876, “Development of Anti-OSCAR Antibodies for the Treatment of Osteoarthritis” (Biomedicines, 2023).

One may read the EC50 as the concentration at which the effect is half-maximal. A low value points to a more potent agent. For orientation: Kd means the equilibrium constant for the complex coming apart. In general, koff refers to the rate constant with which the complex falls apart. A higher koff goes with a short-lived complex. For orientation: kon means the second-order rate constant of association. Read a high kon as faster complex formation.

Assay [1] addresses T1, human OSCAR extracellular domains fused to human IgG1 Fc (human) (UniProt Q8IYS5).
T1 sequence: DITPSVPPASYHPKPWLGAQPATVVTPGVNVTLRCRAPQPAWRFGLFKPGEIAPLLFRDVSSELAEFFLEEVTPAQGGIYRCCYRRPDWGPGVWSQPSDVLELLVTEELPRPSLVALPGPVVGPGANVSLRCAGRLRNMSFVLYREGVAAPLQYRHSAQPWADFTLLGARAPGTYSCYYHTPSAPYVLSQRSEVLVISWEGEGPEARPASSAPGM
Put plainly: ELISA; serial dilution ELISA of IgG-format antibodies against hOSCAR-Fc and mOSCAR-Fc; EC50. Background: ELISA stands for enzyme-linked immunosorbent assay.

For assay [2], the target named is T2, mouse OSCAR extracellular domains fused to human IgG1 Fc (Mus musculus (Mouse)., UniProt Q8VBT3).
T2 construct: osteoclast-associated receptor (OSCAR), mouse, extracellular domains 'corresponding' to amino acids 19-233 of human OSCAR; also called mOSCAR-Fc; mOSCAR; source: FreeStyle 293F, transfected (pVITRO1), secreted, purified (Protein G-Sepharose)
T2 sequence (Q8VBT3 19-231): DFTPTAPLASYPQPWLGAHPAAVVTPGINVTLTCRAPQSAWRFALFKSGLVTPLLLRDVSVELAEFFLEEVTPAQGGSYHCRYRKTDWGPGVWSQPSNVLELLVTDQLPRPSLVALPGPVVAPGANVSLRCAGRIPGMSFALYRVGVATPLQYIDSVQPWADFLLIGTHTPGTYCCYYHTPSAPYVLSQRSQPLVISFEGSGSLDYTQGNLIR
The assay is described as above. As to conditions: both partners purified.

Assay [3] concerns the target T2, mouse OSCAR extracellular domains fused …. Put plainly: BLI; Octet; IgG (5 ug/mL) captured on FAB2G sensor; 4.69-75 nM hOSCAR-Fc or mOSCAR-Fc (two-fold serial dilution) in PBST; 1:1 Langmuir model. As to conditions: both partners purified. In general terms: In BLI a coated tip is dipped into the sample, and binding shifts an interference pattern.
The target of assay [4] is T3, human OSCAR extracellular domains fused to human IgG1 Fc (Homo sapiens, UniProt Q8IYS5-2).
T3 construct: osteoclast-associated receptor (OSCAR), human, extracellular domains, amino acids 19-233; also called hOSCAR-Fc; hOSCAR; source: FreeStyle 293F, transfected (pVITRO1), secreted, purified (Protein G-Sepharose)
Put plainly: ELISA; serial dilution ELISA of IgG-format antibodies against hOSCAR-Fc and mOSCAR-Fc; EC50. As to conditions: both partners purified.

Assay [5] concerns the target T3, human OSCAR extracellular domains fused …. The description is as above. As to conditions: both partners purified. This is another data set of the same source.
Assay [6] shares this target. As to the kind of experiment: BLI; Octet; IgG (5 ug/mL) captured on FAB2G sensor; 4.69-75 nM hOSCAR-Fc or mOSCAR-Fc (two-fold serial dilution) in PBST; 1:1 Langmuir model. The following applies: both partners purified.
Assay [7] deals with anti-OSCAR antibody D11, human IgG1. Described as above.

B1: anti-OSCAR antibody D11, human IgG1 (antibody, V domains shown)
VH: EVQLLESGGGLVQPGGSLRLSCAASGFTFSDYYWTWVRQAPGKGLEWVSGSPVFGAANYAQNFQGRFTISRDNSKNTLYLQMNSLRAEDTAVYYCAKAGFTGGHFDIWGQGTLVTVSS
VL: QSVLTQPPSASGTPGQRVTISCSGSSSNIGNNYVSWYQQLPGTAPKLLIYGNSNRPSGVPNRFSGSKSGTSASLAISGLRSEDEADYYCQSYDSSSWLFGGGTKLTVL
notes: VH before CDR-H3 (clone from a synthetic human scFv library); rest of VH after CDR-H3 and the human IgG1 constant region; light chain of D11; IgG1; Only the CDR-H3 is printed; also called D11 (parent); D11 IgG; source: ExpiCHO, transfected (pcIW3.3), secreted, purified (Protein G)
In turn, B1 came in with an EC50 in assay [1] of over 1000 nM. The same molecule came in with an EC50 in assay [2] of 151 nM. Further, in assay [3], the dissociation constant Kd stood at 2.87 nM, the koff was 0.000254 s⁻¹ and the kon is 91300 M⁻¹ s⁻¹.

B2: anti-OSCAR antibody D11-B9, human IgG1 (affinity-matured variant of D11) (antibody, V domains shown)
VH: EVQLLESGGGLVQPGGSLRLSCAASGFTFSDYYWTWVRQAPGKGLEWVSGSPVFGAANYAQNFQGRFTISRDNSKNTLYLQMNSLRAEDTAVYYCAKAGIPGHFDIWGQGTLVTVSS
VL: B1 VL
notes: VH before CDR-H3, as the heavy chain of m3; rest of VH after CDR-H3 and the human IgG1 constant region, as the heavy chain of m3; as the light chain of m3 (only CDR-H3 was randomized); IgG1; Only the CDR-H3 is printed; From NNK randomization of residues H98-99 (Kabat); CDR-H3 is one residue shorter than the parent's; also called D11-4-B9; source: ExpiCHO, transfected (pcIW3.3), secreted, purified …
Turning to B2, the concentration giving a half-maximal response (EC50) was 36.8 nM in assay [4], 0.93 nM in assay [2] and 0.93 nM in assay [5]. The Kd was determined as 0.41 nM in assay [6] and 0.22 nM in assay [3]. The off-rate constant (koff) in assay [6] came out at 4.15e-05 s⁻¹; in assay [3] it was 2.59e-05 s⁻¹. The results for the association rate constant (kon) in assay [6] and in assay [3] were 101000 M⁻¹ s⁻¹ and 913000 M⁻¹ s⁻¹, respectively.

B3: human OSCAR extracellular domains fused to human IgG1 Fc (Fc fusion)
chain: T1 sequence
As to B3, in assay [7], the Kd worked out at 5.61 nM, the dissociation rate constant (koff) came to 0.000512 s⁻¹ and the on-rate (kon) was 91300 M⁻¹ s⁻¹.
